Data from a protein production outcome set (Wang et al. 2014).

Assay: label from the status in PepcDB records

Row | Sequence | protein production
1 | MRLDHLRLQNFRCYEDAHFDFQPGFNLVVGVNGSGKTSLLLGVAECLIPYGNAMGQGQEILSKEDVRFVIDRHEGRSRFERKFPVFIRADGDIFDLPNWRAVRLLEPWEGGVDPSSLSHLSAVLARNNAGEQIDFPVLAFYRANRRWSSARISAEFAAQQRTSRFDGYANWFDAVADLRDFESWLIARTLERLQDRLDSTPTVEREDELEWVNRAIRLAIPDAHDLRYDLRLQSLLVDMGEGNAVPFHELSDGQRSLIALIADIARRMCVLNPHIGKDVLANTGGIVIIDELDIHLHPAWQRNIAPTLKKAFPKVQFIATSHSPQVIGSLQPGEVILLKNGDSSHPRATYGLDSSTILEEVMGVPQREPEIEVLLDELFSTLENNELEKARLQLDALKKKAPDLPEFAGAEALLKRKELIGRLEHHHHHH | not failed
2 | MMWEQFKKEKLRGYLEAKNQRKVDFDIVELLDLINSFDDFVTLSSCSGRIAVVDLEKPGDKASSLFLGKWHEGVEVSEVAEAALRSRKVAWLIQYPPIIHVACRNIGAAKLLMNAANTAGFRRSGVISLSNYVVEIASLERIELPVAEKGLMLVDDAYLSYVVRWANEKLLKGKEKLGRLQEALESLQRENAYCSD | not failed
3 | MLPSGLKETQLRESNNNQKVHPQPMEESINQNPEAMEALISNLFGNISSLKSAYIELQSAHTPYDPEKIQAADKVVISELKNLSEMKHFYRENNPKPVCVSPQDSRLAAEIQEQQSLLKTYEVMVKKFQSEIQNKDSEITQMLQKIEEANQKRLKLEKNLKLRGMSTNEGSNGDGNMQFPDLTTELYVSTYEAAAKAVHDFSKPLINMMKAAGWDLDSAANSIEPDVVYAKRPHKKYAFESYICQRMFSGFQQKNFSVNSESAAVMANDDTDTFFRQFLALKDMDPLDALGTNPDSNFGIFCRSKYLLLVHPKMEASFFGNLDQRDYVTGGGHPRTAFYQAFLKLAKSIWILHRLAYSFDPAAKIFQVKKGSEFSDSYMESVVKNIVVDEKEENPRVGLMVMPGFWIGGSVIQSRVYVSGVKVLE | failed
4 | MKISVPTYPFARERYWISVPEMKTSTVNHILHPLVHRNTSDFTEQRFSSVFTGTEFFLSDHVVQGQKILPGVAYLEMAREAAEKAAGDLDGEQRVVSLKDIVWVRPITIESEPKEIHIGLFPEDNGDISFDIYSSSEHKEEALTIHCQGRAVISDEAETSILNLSSIQTECSLDTVTSEQCYAAFRKIGLDYGEGYQGIEKVYVGKDQLLAKISLPAFLKNDKQHFALHPSLMDSAFHATVGFIVSSVNAAGQAQTLSLPFALQEVDIFSPCPEKIWSYIRYSSDSLEHHHHHH | failed
5 | MDQLWANRAASAEAAITERHLKKLWGLPGTQLGVVAWPPARKYTLFGTWHYWWQAHLLDCLVDAQVRDPQPERTTRIERQLRAHRLRNNLSWVNDYYDDMAWLALAIERAGRLAGVEKPTALRKLCDQFVTAWVPEDGGGIPWRKQDQFFNAPANGPAGIFLARYDDRLRRAQQMADWIDETLIDPDTHLVFDGIKAGSLVRAQYTYCQGVVLGLEVELAVRTQDPRHAPRVRRLVAAVDKEMTTDGVIKGAGGGDGGLFNGILARYLALVATTLPGETPEDIAARDTARTIVLKSARSAWDHRQTVDGLPLFSAFWDRNAEIPTAGGKEAEFVEGAVNASSVPERDLSVQLAGWMLMEAAHSVDSVDAEDAAGDQNGAGDGEVGHDENEDEELEHHHHHH | not failed
6 | MAYDLWYWDGIPGRGEFVRLALEAGKIPYRDRAREPGEDMLADMRRRRDTAPFAPPYLVADGMTIAQTANILLFLGVEHGLAPPDRAGRLWVNQLQLTIADLTAEAHDVHHPVAAGLYYEDQQDVALRRAADFRETRMPKFMQYFEQALDRPGGWLTDMGRWSYADLSLYHVVEGLLHAFPRRMRTLMHRYPRLMTLHARVAELPELRGYLASDRRLPFGDGIFRHYPELDGA | failed
7 | SIAILVIMHGESTASSMVNVANTLLDCNHAVAINMGLEDRVQDILVQAVEIANKIDKGKGILILTDMGSILTFAKVIRDATGKEVKAIDMVSTPIVIEATRKALTPEMTLEKLYFNIIESIKKHYGDMEVTYAEKDNGGRY | not failed
8 | MKRIQVSPHIYKLESWFLLKMSAWIVKEDEGVYIVDTGMPYMGKRILKEAEKLGKVKGVLLTHGHSDHVGGLKKILDIQDLPVYVHTLDIKHMEGKEPFPGRKKREYLVEPGVAKPLPVDEDGEFRCFGNLVPYHTPGHSPGHVCYYHKKDRVLIGGDLFTSKRGKLQQPIKMFTADMNEAVRSGEIVKKLQPSKVSICHGNDIDNPHTQIDEYLTHYKYERNDQQKIKNEDRTIS | failed
9 | MRVTYWRDESLQKNDRSHIKAYALMSGILAQLVGSILVGIFGGQWIDNKVGTFPLFLIIGLLLGLGTGVYAMIRLIRHYYSGEQ | failed
10 | MSRGPLDPRAPLYKAVQIARRRAAEEGDSSWRVVAQAVEELARRVERLYELASRHGLSKPFWLSPRVLEVLRSVEDGDKGGAIERARSLSESLIPAGLAGEYSLATGTAARVLASIIFLASAAYIGVEGIQAPSTPAAVTTLALASFALAALLAASTHYSLYLLAVSTGASLAIATAYRPVVDSYSILMALYSAVLGFAAAAYSSYTRRKFYRMLRMLERGM | failed
11 | MFSPQAYLIFNMRKPPFDNIKVRQAVMHAFNRKLVVDNIFFGLGKISTSPFVPTEMFFDKDIPAIPFDMKKARALIKESGINPGDYTIRQLSFPYGATWDRLGEYTKQALEQLGFKVNVESTDAGGWASRTGNWDFDLTTTYSYQYGDPALGVQRLYVTSNIVKGSPFANMQGYSNPESDKLWEQAAAEVDPAKRQELYNKIQALLVAEVANGFLVDME | failed
12 | YTEPQIDDTNDGIVFSELTHPLIADAVANDFSLSQNILLTGSNASGKSTFMKSIAINIILASAIQTVTASKFVYQPGIVFTSMANADDVLSGDSYFMAELKSIKRIVEIPDNQKIYCFIDEIFKGTNTTERIAASESVLSFLHEKSNFRVIAATHDIELAELLKQRYENYHFNEVIENNNIHFDYKIKPGKANTRNAIELLKITSFPAKIYERAKDNVSN | failed
13 | MTTPIRVVVWNEFRHEKKDEQVRAIYPEGMHTVIASYLAEAGFDAATAVLDEPEHGLTDEVLDRCDVLVWWGHIAHDEVKDEVVERVHRRVLEGMGLIVLHSGHFSKIFKKLMGTTCNLKWREADEKERLWVVAPGHPIVEGIGPYIELEQEEMYGEFFDIPEPDETIFISWFEGGEVFRSGCTFTRGKGKIFYFRPGHETYPTYHHPDVLKVIANAVRWAAPVNRGEIVFGNVKPLEPIKAKQGGVTQ | not failed
14 | MTAEPAATSAPLSGPVAVIGCGWVGWPLARALLVAGAEVRGSATTPEKVAALRAEGVAATRLRLTPDTSPESDELTELLRGAHRLVLTVPPGRGPERERYAEYLSPVAQAAALHGVRQLIFTSSTGVYPNDPHVMTESDALATPDSPSPLLRAEAALAAAGVPLTVLRFAGLYGPGRPPGRFLAGRTEVGEGSAPVNLVHLDDCVGAVQHMLGGDFGGQTFNVCAAAHPLRRDFYPAAARALGLEAPSFAPHEGGGKIIGSEAFRAATGYHFRHDDPLSDLHTLGNGQGA | failed
15 | NELEKGNDGSGTVDPVNASTLVNVYSDKSGSEASLLVGDVLVKDSRTLTLNVPAACEKVYMKYNTVSGTEATKEFALSPVSRGVDQSTGFNFETNRLASVTLALPEDAVQPTNETDQGYLFYHNTGVVMFEDGWPIQLDSWYDEDFNDVVFEYDLKVTECHSQQMMETVGGKEELLLTLDVRAVGGIYPTVLGVVLDGLKSEYVDRITASLILKGGQGTMTDLAKEELSTKNIVKVENKNWNWSNDTRKEPRFAILTVDKAQAEGTVITLDGLTSLMDNNQDMFQVTQGKVREGLPMLRAEVRLIGKEGLTGAERDAQLAAFRELILDTNRQNFFIKVNGGKEIHMRGYAPTSAYKAEYEALVAGDTTLDANVYYSNTKGSTWGVKLPVGTRHAYERVPFREAYPDFTKWVDSKGVSNQKWYENFVDEKTIRYW | not failed
16 | TTLASIGKDIIEDADGIAMPHQWLEGNLPVSAKCTVCDKTCGSVLRLQDWRCLWCKAMVHTSCKESLLTKC | not failed
17 | MENIPFLRASTVPVIEYLDELKEIDASHIYTNYGPINQRFEQTIMSGFFQNRGAVTTVANATLGLMAAIQLKKRKKGKYALMPSFTFPATPLAAIWCGLEPYFIDISIDDWYMDKTVLWDKIEELKEEVAIVVPYATFGSWMNLEEYEELEKKGVPVVVDAAPGFGLMNGGMHYGQDFSGMIIYSFHATKPFGIGEGGLIYSKNEEDIQRIKRMGNFGFDTNRECTMMGFNCKMSEYAAAIGIATMKKWDDKLKERTRISEWYKQLLQSNGLMKKGWQLQKTEAVIQQFMPILCPEEVRNKQVIEDLKKQKIEARLYFSPSCHQQVLFRNYKSTDLTRTNKIAKRIVSLPLWEGMTKEIVEQIVICLGQKVVSADE | not failed
18 | MKIFKKSDISGIFHELGILISTIGFIMLLPSFIGIYFHEPFFYFLFPSLFFMILGLLINKITKPISVKLKHAMVISALAWLMASLIGAIPFYIGIEYFSYLDGVFESMSAWTTTGFSIVGDVESLPRTLQFWRSFEQWIGGVGVLAMVITILSKAGASAYYRAEAREEKIMPSTIGTIKKIWQIYLLYTTIGICLLYLSGLNLWSALNICMCGISTGGMSISNQSFPFNNFAKIIMTLIMYIGGVVSFSVHHNVLTGRRVDDIQTKTSIPILFFAAFVITLTSGIDPLDSLFTVVSAMTSTGFSSVQISSLTNISIAVLIFVMAIGGATGTTTGGIKLIRLVIMAKGFYYRLKEVVSPGNAIIYKKIGKNQLSDFLILDAFIIAFAYIIHYLFGTLVLISLGYDPFLSVFESVSLVANMGLSVDIVNHSLHPIAKILGVFSMWVGRLEIIPIYVLIILPLYLKLKDVGKNKISKNRKL | failed
19 | DAAPAPAAEAAPAAAPAPAAAAELKEVHVPDIGGDEVEVTEIMVAIGDSIEEEQSLITVEGDKASMEVPAPFAGTLKEIKVAAGDKVSTGSLIMVFETAGSGAPAAPAAVEAPAAAAPAASAA | failed
20 | HSEPSHQSKAVVELPHKQGMARLAAGLLHPDMTIYLDAGTSTLEIVPHIIALSGMTVVTNDFGVVNALADAAHVDVIHTGGLLDHPNRSSVGGLAAATLRQLATDVAFMSTSSWDLQRGTTTPSALKVEVKQAAMQSASQTVLVATSSKY | failed
21 | MQTACQAVQHQRGRRQYNKLRNLLKDARHDCILFANEFQQCCYLPRERGESMEKWQTRSIYNAAVWYYHHCQDRMPIVMVTEDEEAIQQYGSETEGVFVITFKNYLDNFWPDLKAAHELCDSILQSRRERENESQESHGKEYPEHLPLEVLEAGIKSGRYIQGILNVNKHRAQIEAFVRLQGASSKDSDLVSDILIHGMKARNRSIHGDVVVVELLPKNEWKGRTVALCENDCDDKASGESPSEPMPTGRVVGILQKNWRDYVVTFPSKEEVQSQGKNAQKILVTPWDYRIPKIRISTQQAETLQDFRVVVRIDSWESTSVYPNGHFVRVLGRIGDLEGEIATILVENSISVIPFSEAQMCEMPVNTPESPWKVSPEEEQKRKDLRKSHLVFSIDPKGCEDVDDTLSVRTLNNGNLELGVHIADVTHFVAPNSYIDIEARTRATTYYLADRRYDMLPSVLSADLCSLLGGVDRYAVSIMWELDKASYEIKKVWYGRTIIRSAYKLFYEAAQELLDGNLSVVDDIPEFKDLDEKSRQAKLEELVWAIGKLTDIARHVRAKRDGCGALELEGVEVCVQLDDKKNIHDLIPKQPLEVHETVAECMILANHWVAKKIWESFPHQALLRQHPPPHQEFFSELRECAKAKGFFIDTRSNKTLADSLDNANDPHDPIVNRLLRSMATQAMSNALYFSTGSCAEEEFHHYGLALDKYTHFTSPIRRYSDIVVHRLLMAAISKDKKMEIKGNLFSNKDLEELCRHINNRNQAAQHSQKQSTELFQCMYFKDKDPATEERCISDGVIYSIRTNGVLLFIPRFGIKGAAYLKNKDGLVISCGPDSCSEWKPGSLQRFQNKITSTTTDGESVTFHLFDHVTVRISIQASRCHSDTIRLEIISNKPYKIPNTELIHQSSPLLKSELVKEVTKSVEEAQLAQEVKVNIIQEEYQEYRQTKGRSLYTLLEEIRDLALLDVSNNYGI | failed
